In patent US20240391996A1 (TAISHO PHARMACEUTICAL, published 2024):
Read-outs that look alike come from different tables or passages of the source. Blank lines part the entries; values can stand above or below the binder they belong to.

Legend:
[1] = molecular target: T1, recombinant human GH (Pharmaceutical and Medical Device Regulatory Science Society of Japan) (human, UniProt P01241 27-217); test: cell-based or functional assay
[2] = molecular target: T1, recombinant human GH (Pharmaceutical …); test: GH-GHR binding inhibition ELISA: biotin-labeled GH (5.5 ng/mL) on captured GHR-hFc, antibody varied
Procedure: The GH-GHR binding inhibitory activity was measured by calculating the inhibition rate of binding signal of biotin-labeled GH to GHR extracellular region protein-human Fc fusion (GHR-hFc) which was immobilized on an ELISA plate via anti-human Fcγ mouse antibody. The biotin-labeled GH was prepared by labeling recombinant GH with EZ-Link Micro NHS-PEG4-Biotinylation kit (Thermo Fisher Scientific Inc.). The specific method is as follows. Anti-human Fcγ mouse antibody (Jackson ImmunoResearch Laboratories, Inc.) diluted to 1 μg/mL PBS was immobilized at 50 μL/well on a 96-well half-area immunoplate, and the plate was blocked with PBS comprising 1% BSA. Next, GHR-hFc (R&D Systems, Inc.) diluted with assay buffer (PBS comprising 0.2% BSA and 0.05% Tween 20) to 0.1 μg/mL was added at 50 μL/well to be captured on the plate. The plate was washed with washing buffer (PBS comprising 0.05% Tween 20), followed by mixing the equivalent amount of biotin-labeled GH diluted with assay buffer to final concentration of 5.5 ng/mL and a sample (anti-GH mouse mAb-comprising sample) diluted with assay buffer, and adding the resultant mixture at 50 μL/well, and the plate was left still at room temperature for 2 hours. […] The reaction was stopped by adding an aqueous solution of 0.5 mol/L H₂SO₄, and then the absorbance at 450 nm was measured with a plate reader.

[3] = molecular target: T2, prolactin (PRL) (BBT Boster Immunoleader) (human, UniProt P01236 29-227); test: competitive ELISA on immobilised human GH; IC50 (human GH)/IC50 (PRL) x 100
T2 construct: also called human prolactin; GH-analogous protein
T2 sequence (looked up): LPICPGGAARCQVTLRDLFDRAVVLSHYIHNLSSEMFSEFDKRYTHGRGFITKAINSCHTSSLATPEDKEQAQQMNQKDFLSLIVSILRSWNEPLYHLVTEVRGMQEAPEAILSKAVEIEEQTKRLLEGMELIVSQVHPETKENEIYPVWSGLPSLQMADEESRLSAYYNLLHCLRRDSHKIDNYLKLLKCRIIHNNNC
Procedure: (§1) IC₅₀ (nmol/L) for each of the anti-GH antibodies was determined by concentration-dependent curves of human GH and GH-analogous protein. The cross-reactivity to the GH-analogous protein was calculated by the following formula 3.

[4] = molecular target: T1, recombinant human GH (Pharmaceutical …); test: SPR (BIACORE 8K+), antibody captured by anti-human IgG (Fc) on CM5 chip, GH as analyte
Procedure: (§2) The binding properties of the recombinant anti-GH humanized antibody (Hu-13H02) and the Fc mutant thereof (Hu-13H02m) prepared in Example 11, and the chimeric antibody (Ch-13H02) prepared in Example 8 to the human GH (Pharmaceutical and Medical Device Regulatory Science Society of Japan) and the monkey GH (Example 3) were measured with SPR using BIACORE 8K+ (GE Healthcare Inc.). The antibody samples (1 μg/mL) of the three antibodies (Hu-13H02, Hu-13H02m, and Ch-13H02) were captured by anti-human IgG (Fc) antibody immobilized on a CM5 sensor chip, respectively. Next, the human GH ranging from 0.13 to 8.0 nmol/L, or the monkey GH ranging from 0.50 to 32 nmol/L was added to calculate binding and dissociation parameters.

[5] = molecular target: recombinant cynomolgus monkey GH (cynomolgus monkey); test: as above
Procedure: as §2

[6] = molecular target: T3, placental lactogen (PL) (Protein Laboratories Rehovot Ltd.) (human, UniProt P0DML2 27-217); test: competitive ELISA on immobilised human GH; IC50 (human GH)/IC50 (PL) x 100
T3 construct: also called human placental lactogen; GH-analogous protein
Procedure: as §1

[7] = molecular target: T1, recombinant human GH (Pharmaceutical …); test: cell-based or functional assay; remark: listed apart in the source
[8] = molecular target: recombinant cynomolgus monkey GH (cynomolgus monkey); test: cell-based or functional assay
[9] = molecular target: T1, recombinant human GH (Pharmaceutical …); test: cell-based or functional assay; remark: listed apart in the source

T3 sequence (P0DML2 27-217 limits assumed): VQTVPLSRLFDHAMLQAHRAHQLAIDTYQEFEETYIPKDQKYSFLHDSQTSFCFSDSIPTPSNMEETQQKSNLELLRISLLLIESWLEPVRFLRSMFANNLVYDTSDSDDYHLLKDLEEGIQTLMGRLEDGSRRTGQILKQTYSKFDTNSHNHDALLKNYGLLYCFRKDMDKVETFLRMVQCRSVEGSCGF
recombinant cynomolgus monkey GH (cynomolgus monkey), sequence (P33093 27-217): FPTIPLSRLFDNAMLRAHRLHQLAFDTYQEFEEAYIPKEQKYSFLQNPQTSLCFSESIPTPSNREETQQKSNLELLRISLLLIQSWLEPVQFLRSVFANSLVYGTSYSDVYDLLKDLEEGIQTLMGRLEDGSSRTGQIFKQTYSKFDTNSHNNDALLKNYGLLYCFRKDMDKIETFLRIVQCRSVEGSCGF
T1 sequence (P01241 27-217 limits assumed): as the sequence (P33093 27-217) above, with T105A, Y107D, D109N, S133P, N153D, I173V counted along it

GH-dependent Nb2 cell proliferation inhibitory activity (IC50) [1]: 0.00336 nM
IC50 [2]: 0.0653 nM
B1: anti-GH mouse mAb 13H02 (antibody, mouse IgG2a, V domains shown)
VH: QGQMQQSGGELVNPGSSVKMSCKTSGFTFTSSEISWLKQKPGQSLEWIAWIYPGTGSSKFNQKFTGKAQLTAETSSSTAYMQLSSLTSEDSAIYYCARRGFFGGSFDYWGQGTTLTISS
VL: QIVLAQSPAIMSASLGERVTMTCTATSSVSSSYLHWYQQKPGSSPKLWIYSTSNLASGVPARFSGSGSGTSYSLTISSMEAEDAATYYCHQYHHSPPTFGAGTKLELK
notes: also called parent mouse antibody (13H02)

cross-reactivity [3]: < 1%
Kd [4]: 0.012 nM
koff [4]: 2.4e-05 s⁻¹
kon [4]: 1.9e+06 M⁻¹ s⁻¹
Kd [5]: 0.074 nM
koff [5]: 3.4e-05 s⁻¹
kon [5]: 450000 M⁻¹ s⁻¹
cross-reactivity [6]: < 1%
Neutralizing activity in GH-dependent Nb2 cell proliferation inhibition assay (IC50) [7]: 0.00265 nM
Neutralizing activity in GH-dependent Nb2 cell proliferation inhibition assay (IC50) [8]: 0.0136 nM
GH-dependent Nb2 cell proliferation inhibitory activity (IC50) [9]: 0.00627 nM
B2: recombinant anti-GH mouse-human chimeric mAb (Ch-13H02) (antibody, human IgG1, V domains shown)
VH: B1 VH
VL: B1 VL
notes: also called Ch-13H2; anti-GH chimeric antibody

cross-reactivity [3]: < 1%
Kd [5]: 0.13 nM
koff [5]: 6.2e-05 s⁻¹
kon [5]: 470000 M⁻¹ s⁻¹
cross-reactivity [6]: < 1%
Neutralizing activity in GH-dependent Nb2 cell proliferation inhibition assay (IC50) [8]: 0.048 nM
B3: recombinant anti-GH humanized antibody (Hu-13H02) (antibody, human IgG1, V domains shown)
VH: QVQMVQSGAEVKKPGASVKVSCKASGFTFTSSEISWLRQAPGQRLEWIAWIYPGTGSSKFNQKFTGKATLTADTSASTAYMELSSLRSEDTAVYYCARRGFFGGSFDYWGQGTTVTVSS
VL: DIQLTQSPSFLSASVGDRVTITCTATSSVSSSYLHWYQQKPGKAPKLWIYSTSNLASGVPSRFSGSGSGTEFTLTISSLQPEDFATYYCHQYHHSPPTFGGGTKVEIK
notes: also called humanized 13H02

cross-reactivity [3]: < 1%
Kd [5]: 0.13 nM
koff [5]: 6.9e-05 s⁻¹
kon [5]: 520000 M⁻¹ s⁻¹
cross-reactivity [6]: < 1%
Neutralizing activity in GH-dependent Nb2 cell proliferation inhibition assay (IC50) [8]: 0.0301 nM
B4: anti-GH humanized antibody Fc mutant (Hu-13H02m) (antibody, human IgG1, kappa, V domains shown)
VH: B3 VH
VL: DIQLTQSPSFLSASVGDRVTITCTATSSVSSSYLHWYQQKPGKAPKLWIYSTSNLASGVPSRFSGSGSGTEFTLTISSLQPEDFATYYCHQYHHSPPTFGGGTKVEIKR
notes: also called Fc variant of Hu-13H02
